Measured values as given in PMC6318002 (Nature, 2018).

Molecular target: the molecule itself
Experiment: cross-linking

B1: recombinant PKM2-C423/424A (enzyme)
chain: not shown
B1 was tested, and the “stoichiometry N” value was 4.
